# Experimental data taken from IntAct's records for PubMed 19942855.
# Molecular target: spp_human HM13 (UniProt Q8TCT9)
# Sequence (Q8TCT9 whole entry): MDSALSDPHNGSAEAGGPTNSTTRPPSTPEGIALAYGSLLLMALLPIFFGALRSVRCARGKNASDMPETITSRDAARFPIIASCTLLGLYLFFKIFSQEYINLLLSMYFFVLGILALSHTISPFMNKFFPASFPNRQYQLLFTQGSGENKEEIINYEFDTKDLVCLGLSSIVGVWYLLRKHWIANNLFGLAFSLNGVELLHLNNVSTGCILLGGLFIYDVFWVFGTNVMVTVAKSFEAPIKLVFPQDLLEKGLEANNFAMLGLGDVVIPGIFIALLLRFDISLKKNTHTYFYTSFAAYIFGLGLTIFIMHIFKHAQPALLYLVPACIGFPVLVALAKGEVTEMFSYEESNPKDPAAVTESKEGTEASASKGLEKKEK
# Protein disulfide-isomerase (Homo sapiens), P07237 C53S, sequence (P07237 whole entry C53S): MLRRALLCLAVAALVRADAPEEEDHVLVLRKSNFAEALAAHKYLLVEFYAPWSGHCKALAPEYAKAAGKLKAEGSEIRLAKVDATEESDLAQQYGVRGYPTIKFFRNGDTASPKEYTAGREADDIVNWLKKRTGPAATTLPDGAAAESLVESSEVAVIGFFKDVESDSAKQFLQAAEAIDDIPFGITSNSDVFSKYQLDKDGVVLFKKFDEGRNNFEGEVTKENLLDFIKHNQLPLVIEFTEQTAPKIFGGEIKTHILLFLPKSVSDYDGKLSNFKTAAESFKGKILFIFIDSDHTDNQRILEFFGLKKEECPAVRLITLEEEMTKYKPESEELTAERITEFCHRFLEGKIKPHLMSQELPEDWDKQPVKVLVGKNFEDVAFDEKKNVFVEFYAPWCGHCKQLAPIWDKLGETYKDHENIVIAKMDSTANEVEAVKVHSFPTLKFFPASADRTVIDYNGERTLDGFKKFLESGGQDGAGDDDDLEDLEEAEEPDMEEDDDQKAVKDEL
# Protein disulfide-isomerase (Homo sapiens), P07237 C397S, sequence (P07237 whole entry C397S): as the sequence (P07237 whole entry C53S) above, with S53C, C397S counted along it
# Protein disulfide-isomerase (Homo sapiens), P07237 C400S, sequence (P07237 whole entry C400S): as the sequence (P07237 whole entry C53S) above, with S53C, C400S counted along it
# Protein disulfide-isomerase (Homo sapiens), P07237 I289A, sequence (P07237 whole entry I289A): as the sequence (P07237 whole entry C53S) above, with S53C, I289A counted along it
# Protein disulfide-isomerase (Homo sapiens), P07237 C56S, sequence (P07237 whole entry C56S): as the sequence (P07237 whole entry C53S) above, with S53C, C56S counted along it
# Protein disulfide-isomerase (Homo sapiens), P07237 F275W, sequence (P07237 whole entry F275W): as the sequence (P07237 whole entry C53S) above, with S53C, F275W counted along it
row,Substance,effect of a mutation on the interaction
1,"Protein disulfide-isomerase (Homo sapiens), P07237 F275W",increasing interaction
2,"Protein disulfide-isomerase (Homo sapiens), P07237 I289A",increasing interaction

# Molecular target: spp_human HM13 (UniProt Q8TCT9)
# Remark: another data set of the same source
row,Substance,effect of a mutation on the interaction
1,"Protein disulfide-isomerase (Homo sapiens), P07237 C53S",decreasing interaction
2,"Protein disulfide-isomerase (Homo sapiens), P07237 C56S",decreasing interaction
3,"Protein disulfide-isomerase (Homo sapiens), P07237 C397S",decreasing interaction
4,"Protein disulfide-isomerase (Homo sapiens), P07237 C400S",decreasing interaction
